B1: EPC10 (ligand, not shown: small tags and cut ends)
chain: GDQNPQIAAHVISEASSTTTSVLQWAEKGYYTMSNNLVTLENGKQLTVKRQGLYYIYAQVTFCSNREASSQAPFIASLCLKSPGRFERILLRAANTHSSAKHCGQQSIHLGGVFELQPGASVFVNVTDPSQVSHGTGFTSFGLFKL
B2: EPC7 (ligand, not shown: small tags and cut ends)
chain: GDQNPQIAAHVISEASSKTTSVLQWAEKGYYTMSNNLVTLENGKQLTVKRQGLYYIYAQVTFCSNREASGQAPFIASLCLKSPGRFERILLRAANTHSSAKRCGQQSIHLGGVFELQPGASVFVNVTDPSQVSHGTGFTSFGLFKL

How the values were obtained:
[1] = molecular target: CD40 on peripheral blood B cells (CD3- CD19+ cells of PBMC) (UniProt P25942); test: flow cytometry: PBMC stained with the secondary anti-His tag antibody alone (negative control); gate lymphoid, single, viable, CD3- CD19+ cells [panel B]
[2] = molecular target: CD40 on peripheral blood B cells (CD3- CD19+ cells of PBMC) (UniProt P25942); test: flow cytometry: PBMC incubated with 0.043 uM His-tagged CD40L construct, secondary anti-His tag antibody; gate lymphoid, single, viable, CD3- CD19+ cells [panel B]

Row | Molecule | MFI [1] | MFI [2]
1 | Control (antibody) | 99 | –
2 | WT (ligand) | – | 1300
3 | B1 | – | 1180
4 | B2 | – | 1360
